According to patent US20240002500A1 (GUANGDONG FAPON BIOPHARMA, published 2024):

Tests used:
[1] = molecular target: T1, human Tigit extracellular domain recombinant protein hTigit-his (Acrobiosystem, Cat.TIT-H2H3) (human, UniProt Q495A1 22-141); experiment: BLI epitope binning (ForteBIO QKe), hTigit-his on anti-Penta-HIS sensor; competitor R0223
T1 construct: extracellular domain; Bought; not shown: his tag
T1 sequence (looked up): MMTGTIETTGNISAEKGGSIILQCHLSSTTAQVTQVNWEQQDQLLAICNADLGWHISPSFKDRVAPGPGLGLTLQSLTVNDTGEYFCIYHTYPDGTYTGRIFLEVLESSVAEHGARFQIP
Experimental: (§1) Epitope competition analysis was performed on an anti-human TIGIT antibody with an MD ForteBIO QKe platform. An experimental method included: a human Tigit extracellular domain recombinant protein hTigit-his (Acrobiosystem, Cat.TIT-H2H3, lot-1336-76GF1-F9) carrying a his tag was diluted with an equilibration buffer (1×PBS+0.02% Tween 20), until the final concentration was 1.5 μg/ml. The anti-human Tigit antibody was diluted with the equilibration buffer (1×PBS+0.02% Tween 20), the final concentration being 5 μg/ml. After an anti-Penta-HIS biosensor (ForteBIO, Cat. 18-5122) was fully hydrated, first the hTigit-his recombinant protein was solidified for 180 seconds, then equilibrated for 30 seconds, and bound to the first anti-human Tigit antibody for 180 seconds, then equilibrated for 30 seconds, and then bound to the second anti-human Tigit antibody, binding time being 300 seconds. The whole reaction was performed at 25° C. and 1000 rpm; and finally, Octet analysis software was used to perform epitope binning analysis.

[2] = molecular target: T1, human Tigit extracellular domain …; experiment: BLI epitope binning (ForteBIO QKe), hTigit-his on anti-Penta-HIS sensor; competitor R0300
Experimental: as §1

B1: Tigit-18 (antibody, V domains shown)
VH: QVQLQQPGAELVRPGASVKLSCKASGYSFTSYWMNWVKQRPGQGHEWIGMIHLSNSETRLNQNFLDKATLTVDKSSSTVYLQLSSPTSEDSAVYYCARERDYYGSSYFDYWGQGTTLTVSS
VL: DIVMTQSPASLVVSLGQRATISCRTSQSVSTSSYSYMHWYQQKPGQPPKLLIKNASNLESGVPARFSASGSGTDFTLNIHPVEEEDAATYYCQHSWEIPRTFGGGTKLEIK
[1]
  epitope binning signal (name and unit not given): 0.0383
[2]
  epitope binning signal (name and unit not given): 0.544
